Source: the DeepSol protein solubility set

test: soluble on expression in E. coli; label from the status in PepcDB or PDB records

Row | Sequence | soluble on expression in E. coli
1 | MPVLHNRISNDALKAKMLAESEPRTTISFYKYFHIADPKATRDALYQLFTALNVFGRVYLAHEGINAQISVPASNVETFRAQLYAFDPALEGLRLNIALDDDGKSFWVLRMKVRDRIVADGIDDPHFDASNVGEYLQAAEVNAMLDDPDALFIDMRNHYEYEVGHFENALEIPADTFREQLPKAVEMMQAHKDKKIVMYCTGGIRCEKASAWMKHNGFNKVWHIEGGIIEYARKAREQGLPVRFIGKNFVFDERMGERISDEIIAHCHQCGAPCDSHTNCKNDGCHLLFIQCPVCAEKYKGCCSEICCEESALPPEEQRRRRAGRENGNKIFNKSRGRLNTTLCIPDPTELEHHHHHH | soluble
2 | MPVLNLNDPQAVERYEEFMRQSPYGQVTQDLGWAKVKNNWEPVDVYLEDDQGAIIAAMSMLLGDTPTDKKFAYASKGPVMDVTDVDLLDRLVDEAVKALDGRAYVLRFDPEVAYSDEFNTTLQDHGYVTRNRNVADAGMHATIQPRLNMVLDLTKFPDAKTTLDLYPSKTKSKIKRPFRDGVEVHSGNSATELDEFFKTYTTMAERHGITHRPIEYFQRMQAAFDADTMRIFVAEREGKLLSTGIALKYGRKIWYMYAGSMDGNTYYAPYAVQSEMIQWALDTNTDLYDLGGIESESTDDSLYVFKHVFVKDAPREYIGEIDKVLDPEVYAELVKD | soluble
3 | MPVLSIISCRMFEDELAHIISSDKEMKQLIVVENKDSFGLLRKLRSDNCLPRTSPLDRVPFLLGNGHGSGFMTISKPLLILPFFRKIHEKMKIKAAQELTVVVNLLKLGLHDDIEILRSEVYKNIKEMTSFSDGILLFYCSCGGAFENLEENCLEFDCPLYWFKDGNEEVVVDCISAAIGGNAAYDELMYTCRGTGALYFTSMWASSWKEMREERKKSRNFNENYLKDPRYSRVVKLDTGLSYDPDFHKNVRDFARTFDMEIIEVKGSVELAEKSYRTAKKGVVQHTLKLEHHHHHH | not soluble
4 | MPVSDQLIDQLLADYESPQDLLGEQGILRQLTKKLAERALEAEMELHLGYAKHDAAGFNTGNSRNGKSRKSVRSIHGDIELETPRDRNGSFEPKLIKKGEKQLGGFDERIVSLYARGMSTRDIQAHFEETYGVEVSPTFISQITNAVLDEVKAWQLRPLAPVYPIVYLDCLVVRSRDSGSIQNKSVYLALGVNTDGEKELLGLWIAQTEGAKFWLSVMNELKNRGVEDIFIACVDGLKGFPDAIEAVYPKTQVQLCIVHQIRNSLRFVSWKERKAVAADLKTIYGAATLQQAELALEQFAKTWDKQHPSISKSWRENWTRLSVFFDYPPEIRKVIYTTNAIESLNASLRQVTKTRRSFPSDDAVLKLLYLALHQIAKKWTMPLRDWKPAMTQFMIMYSDRVSL | not soluble
5 | MPYVFLLSPQLEIASQWDGYYEKTFEVSDHVHKEIILKVSGQTVLITGSGSGLGRLMAFEFGKLGARLVLWDINEQGNKETLKELEAMGVEVWTCNIFHIYRFIR | not soluble
6 | MQADPAIRRFAKKRNKRVDRMILDSNYMHTSIDRYFPNESKRRGRPDIIYLLLEMTQESILNHKNQLRTYVHTRNNQVIRISPITRMPKSYNRFIGLFEDLFEKRIITNNGKELLSMEESSLGDLINSIRRDRTILLHPKGEMRKPSEFISNANILIVIGGFSEGDFISDTSFINERYAIFDQELTIWSVANEMVANYERAVGLTLEHHHHHH | soluble
7 | MQAKPQIPKDKSKVAGYIEIPDADIKEPVYPGPATPEQLNRGVSFAEENESLDDQNISIAGHTFIDRPNYQFTNLKAAKKGSMVYFKVGNETRKYKMTSIRDVKPTDVGVLDEQKGKDKQLTLITCDDYNEKTGVWEKRKIFVATEVK | soluble
8 | MQASELTPKWYVAPVSIKDEAVVKNLKAKIQALGFNHEIVDVKVLKEREVHEEVYSLKSGKLPRSLKNTTFNKWFVLDDYRYLRVKISEKNLLGRYIYIKMIYSEDAWRIVRNFPGITGIVGSSGRGALPIPLDEKDANNLEQMLKGISINPSKRIMLTNTAIIEMDSDKFDEKFQYILKQKQAIQKPKEDEDSEIVDAEKLKEAFKKLQNSQEQDEWKEKATIIQSEQTKLDPSVLVPFLGKYEILDTDNKVEQLFEFSVGNLVEVHLTDTIHVQGQIKALYQGTVNKAVVEIELTSKTQLINLPLENLSFVEFE | soluble
9 | MQATIYDLDGNTDGEVDLPDVFETPVRSDLIGKAVRAAQANRKQDYGSDEYAGLRTPAESFGSGRGQAHVPKLDGRARRVPQAVKGRSAHPPKTEKDRSLDLNDKERQLAVRSALAATADADLVADRGHEFDRDEVPVVVSDDFEDLVKTQEVVSLLEALDVHADIDRADETKIKAGQGSARGRKYRRPASILFVTSDEPSTAARNLAGADVATASEVNTEDLAPGGAPGRLTVFTESALAEVAER | soluble
10 | MQCNVCEFGCEIDEYSRGRCRTYVCTGDTIIQDPDMGYLGAYPVSIETIPLLHYYPSGKFLQVFGTGCNFQCSGCVARLLASGKSLSSTTLTPSQVVEKALQQDCLGVVSTLNEPAANYYLFRDLAVQAKEKGLLVGCSTNCYFTEETLNKLGQLVDFMNVGIKGYSDRSYISCGVPSSAPVFRNISLLFDMGVHVETSVVYSRGNEADVIKVAEAVSDISPTIPVQVMRFIPFGDAPIELEPSVGEAESLCADLRKYVDYVYLFNSPGTELLNTYCPECGSLLAEREFYGPMGSRPVRPWITYSCDCGKTVPVKGTTAVERFNEEGFMGGYRISRAFGMVHGVLTCLGILDDSRLIDVWREISDSGTLMKVHHMIQQPYAYLDFVRLIAERANMPEKGEELISFIHTRLELVKSLAAENSGHKVYYCMGSPLFALNAGRMENNLVAFSGGLSINKQLQKEGKPGINVSPSFINENNPDTIFISGFLSRPLDEFYTLCRQYGIETDAVKQQRVYEVPPSWDFGNPRWILGLMYIADKLYPGNSGIDLEKEADEFYRQFYGMPYLEHHHHHH | not soluble
11 | MQDGESNFPLLLLPENAKKHVLRTMDVDFLLSLSFCSKRTKHIVQSLKLKFEHFKMDLLGKTKLMINFRSTTILLVFNALYGDKAWKDVFRTVVSTGPPNARYYNTNFFKSFGWERKELAVEDTIYHIFDILNTNVIDVFLDCNNRNMFFFEKLSQTFRERNVRRISLGSMQNPIFNSFSYLENSLRNQFLELEGLAYLRELYRTLQEEHKILIQNFNYLNPNLPSTGKMTLNELLLINSSHITLTFNEMALNEKSLNIFLKHWINGSNKKLDYMYLSGFTQLGETSVAIEAILKRIVHKEASHDRLFKKFYDPGSNGNIGDNSSSLKHGFDIISNDGTPATASIRISEGVIYFQMKVWDQ | not soluble
12 | MQDILFDFISTYISLTEDEKNALLSLDLFRSVPKGTILLKEGQKSQESYFVLKGCIRIYYIIDGEEKTTAFYTEMDALTPPCVIHNAPSEYFISCIEDSILTVSNLEMEAEINSKFPKFELMCRMLSEELLAKQQIDFDAFKTSSPEQRYLNVLQNRPDLIQRVPQHQLASFLGIKPQSLSRLRARIVDKKS | not soluble
13 | MQDIRDLTAVLRSKTPIVVIETYEEYRVVDMLKRIANVLYQPLFTWSITQGLTRVDKPMPAQKFNTEPGDILGQIKATTQQGIYVLCDFHPFVVEAPKNVRLLKEIALEYDALQHTLVLVSHAFEIPPEIKRYCAYFQLTLPSTSQLENLIYLEVDKVRTQGIPLNVDDKAVVKLAENLRGVTLDDARRLIHKAIVDDGAITHSDVDLINKAKFQLLDLNGILQFEYDTSDFSQIAGLHNLKKWLKQRAPAAHSPQGVSAAAQIDTPKGVLLLGVQGSGKSLAAKAVAGVWQRPLLRLDMGALYNKYIGETEKNLRNALELADMMSPCILWIDEIEKGLSGSNSDQGISTRILGTLLTWMAERKSEVFVVATANDIQALPPELMRKGRMDEIFFVDLPDETIRKAIFLIHCQRRGIDVSRLDLAQLSRHSQGFSGAEIEQAVIAAMYSARSLGRTLDQDLLLEELTKTRPLSIVMGDKINALRQWAAGRTVNAHELEHHHHHH | soluble
14 | MQDRCPHQDHRSIPTIMPDLEPDTVSALEAPEFAPAQFVRWFREVAPYVHAFRGKTFVVAFGGELVQAGALNVLVQDLSLLSALGIHLVLVHGSRPQVNEQLRLKGYTQQFGRGLAPTDPAALECAKEAAGEIRLDIEAAFSQGLPNTPMSHSHIRVLSGNFVTARPTGVVDGIDYKHTGQVRKIDVDALKFAIEQGSVVLLSPLGFSPTGDAFNLAMEDLATSVAVALRAEKLIFLSGEPGVLDGNGAVDTELARVDADALLARGELDEDTTYFLQHASLAVKRGVARAHLVPYALDGSVLLEIFTHDGVGTMVVEDTLDDLRAATLDDVGAILSLIEPLETDGTLVPRPRSAIERDVERFTVLEHDGVIYGCAALYPFPEDQMAEMACLIVHPEWQGSGEGEILLRHMESRARASGARRLFVLTTRTSHWFMKRGFVRGGVADLPRDKQNNYNRSRNSLVFIKKL | not soluble
15 | MQERDKEPLQERFFRPHFLQAPGDMVAHEGRLCRLDCKVSGLPPPELTWLLNGQPVLPDASHKMLVRGTGVHSLLIDPLTQRDAGTYTCVATNKTGQNSFSLELTVVAKEVKKAPVILEKLQNSGVPEGHPVRLEGRVIGMPPPVFYWKKDNETIPFTRERISMHQDTTGYVCLLIQPAKKSDAGWYTLSAKNEAGIVSCTARLDIYAQWHQQIPTPISIRPSGSRYGSLTSKGLDIFSAFSSVESTMLYSCTSRSVVESDEL | not soluble
16 | MQERHTEQDYRALLIADTPIIDVRAPIEFEHGAMPAAINLPLMNNDERAAVGTCYKQQGSDAALALGHKLVAGEIRQQRMDAWRAACLQNPQGILCCARGGQRSHIVQSWLHAAGIDYPLVEGGYKALRQTAIQATIELAQKPIVLIGGCTGSGKTLLVQQQPNGVDLEGLARHRGSAFGRTLQPQLSQASFENLLAAEMLKTDARQNLRLWVLEDESRMIGSNHLPECLRERMTQAAIAVVEDPFEIRLERLNEEYFLRMHHDFTHAYGDEQGWQEYCEYLHHGLSAIKRRLGLQRYNELAARLDAALTTQLTTGSTDGHLAWLVPLLEEYYDPMYRYQLEKKAEKVVFRGEWAEVAEWVKAR | soluble
17 | MQEVHKWHNDLTGKKLVENLKKNLFDAYYFEDGSEVSKYIMNYVGTGTKIGFGGSVTVQSLNIAEQAMEKGAVILDHNDASLTQEEKMDIMRQQLTSDIFISSTNAITASGELVNIDGVGNRVSAIVFGPKKVIIVVGLNKLCKDVETAFERIKMQAAPKNMKRLGFLNPCIKTGYCVNCDAETRACRIYSVIKRRPMLTDMTVLVVGKSLGFLEHHHHHH | soluble
18 | MQFEKMITEGSNTASAEIDRVSTLEMCRIINDEDKTVPLAVERVLPDIAAAIDVIHAQVSGGGRLIYLGAGTSGRLGILDASECPPTYGVKPGLVVGLIAGGEYAIQHAVEGAEDSREGGVNDLKNINLTAQDVVVGIAASGRTPYVIAGLEYARQLGCRTVGISCNPGSAVSTTAEFAITPIVGAEVVTGSSRMKAGTAQKLVLNMLSTGLMIKSGKVFGNLMVDVVATNEKLHVRQVNIVKNATGCSAEQAEAALIACERNCKTAIVMVLKNLDAAEAKKRLDQHGGFIRQVLDKELEHHHHHH | soluble
19 | MQFHIDDMTCGGCASTVKKTILTLDANATVRTDPATRLVDVETSLSAEQIAAALQKAGFPPRER | not soluble
